B1: SNAP91 (parent)
chain: FATASAAVPVSTSKPSSDLLDLQP
B2: SPOPL (parent)
chain: AKREETKAMESQRAYRFVQGKDWG

Variants of: B1
Test: protein stability index of a GFP-peptide fusion (GPS, HEK-293T) (PSI 1-6); higher = more stable
Conditions: c terminus: a fixed tail appended
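Note: lentivirally expressed fusions sorted by FACS into six bins by GFP to DsRed ratio, PSI derived from sequencing read proportions per bin multiplied by bin number.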

Protein stability index, by site and new letter:
D21: E 4.22 | N 3.59 | I 2.93 | M 3.23 | H 3.27 | Y 2.67 | K 3.41 | C 2.91 | W 1.78
P24: G 3.63 | S 3.64 | I 3.3 | V 3.41 | E 4.53 | T 3.88
A7: T 3.24 | P 3.66 | I 3.14 | F 3.89 | D 4.5 | Q 3.79 | M 4.01 | R 3.63 | S 3.55 | K 3.54
V8: G 4.52 | W 1.88 | E 3.99 | Y 3.09 | F 3.11 | K 4.13 | M 3.02 | I 3.93
Q23: M 3.29 | T 3.96 | D 3.97 | W 2.69 | Y 2.8 | I 2.92 | G 3.79 | K 3.42
S11: I 3.15 | Y 2.17 | L 3.03 | A 3.44 | D 4.42 | C 3.15
F1: A 4.84 | E 5.69 | S 4.99 | Y 3.8 | G 4.89 | N 4.53 | T 4.91 | P 4.84 | D 5.71
S17: H 3.66 | P 3.79 | V 3.47 | G 3.68 | T 4.21 | C 3.41 | E 4.13 | L 3.35 | R 3.25
V10: T 4.17 | N 3.94 | R 2.85 | S 3.97 | A 3.87 | D 4.18
A2: E 4.5 | R 3.46 | W 2.96 | C 3.09 | T 3.18
A6: I 2.41 | T 3.5 | S 3.78 | C 2.46 | L 2.47 | N 4.69 | Y 1.96 | D 4.22 | F 2.31 | R 3.31 | P 3.54
L22: V 3.85 | A 4.49 | E 4.76 | F 3.59 | P 4.4
S5: R 3.45 | E 4.02 | I 2.8 | H 3.33 | M 2.83 | A 3.46 | L 2.28 | T 3.73 | W 3.73 | F 1.45
T3: E 4.26 | H 3.71 | M 3.16 | L 3.35 | K 3.22 | C 3.45 | W 1.64 | Q 4.15
D18: L 2.77 | F 2.23 | E 3.98 | G 3.42 | S 2.99 | C 3.42 | W 2.13 | V 3.17
S16: Y 3.08 | C 3.36 | L 2.83 | R 3.3 | W 1.54 | K 3.43 | F 2.99 | T 3.03 | D 4.24
P15: N 3.85 | W 2.19 | V 3.14 | A 3.28 | R 2.9 | I 3.52 | D 4.17 | T 3.74
T12: V 3.73 | P 2.1 | M 2.78 | Q 3.97 | R 3.13
L19: M 3.81 | F 3.7 | R 3.98 | E 4.59 | Q 3.96 | S 4.35 | I 3.95 | C 4.06 | V 3.95 | A 4.02 | Y 3.56
S13: M 3.67 | K 3.72 | T 3.38 | A 3.82
L20: P 4.36 | T 3.92 | H 3.9 | D 4.48 | M 3.74 | C 3.93 | N 3.61 | F 3.15 | K 4.33
P9: R 3.05 | H 3.46 | C 2.27 | D 3.78 | N 3.75 | I 1.87 | T 3.73 | Q 3.31
A4: V 3.9 | F 2.06 | Q 3.9
K14: P 4.15 | W 2.03 | D 4.36 | L 3.64 | A 4.16

Variants of: B2
Test: as above
Conditions: c terminus: a fixed tail appended

Protein stability index: each site, then its substitutions
A1: C 2.14 | D 3.38 | E 3.4 | F 3.61 | G 2.82 | H 3.61 | I 2.59 | K 2.83 | L 2.55 | M 2.77 | N 3.14 | P 3.02 | Q 4.09 | R 2.49 | S 2.81 | T 2.93 | V 2.29 | W 2.61 | Y 2.57
K2: A 3.03 | C 1.75 | D 3.39 | E 3.61 | F 2.81 | G 2.6 | H 2.93 | I 2.71 | L 2.24 | M 2.06 | N 3.41 | P 3.3 | Q 3.13 | R 2.92 | S 2.85 | T 3.37 | V 2.98 | W 2.48 | Y 2.74
R3: A 3.49 | C 2.26 | D 3.67 | E 4.03 | F 2.87 | G 3 | H 2.45 | I 3.36 | K 3.38 | L 3.31 | M 3.32 | N 2.91 | P 2.67 | Q 3.22 | S 3.34 | T 2.88 | V 3.24 | W 3.08 | Y 2.93
E4: A 2.96 | C 2.35 | D 3.26 | F 2.21 | G 2.81 | H 2.5 | I 3.2 | K 2.77 | L 2.26 | M 2.63 | N 2.54 | P 2.96 | Q 2.65 | R 2.44 | S 3.05 | T 3 | V 2.42 | W 2.59 | Y 2.02
E5: A 2.67 | C 2.37 | D 4.16 | F 2.4 | G 2.35 | H 2.28 | I 2.26 | K 2.79 | L 3.15 | M 2.28 | N 2.76 | P 2.76 | Q 2.32 | R 2.38 | S 2.32 | T 2.9 | V 3.02 | W 1.75 | Y 1.71
T6: A 2.48 | C 3.06 | D 3.18 | E 3.51 | F 2.32 | G 2.56 | H 3.2 | I 2.34 | K 2.89 | L 3.89 | M 2.32 | N 3.34 | P 2.91 | Q 3.54 | R 2.67 | S 3.58 | V 2.29 | W 2.48 | Y 2.46
K7: A 3.52 | C 1.78 | D 3.29 | E 3.72 | F 2.9 | G 3.23 | H 2.8 | I 2.72 | L 2.44 | M 2.62 | N 3.25 | P 3.37 | Q 3.04 | R 2.57 | S 3.23 | T 3.53 | V 2.83 | W 2.04 | Y 3.5
A8: C 2.75 | D 4.01 | E 4.1 | F 2.35 | G 2.48 | H 3.28 | I 2.53 | K 3.44 | L 2.38 | M 2.87 | N 3.03 | P 2.9 | Q 3.75 | R 3.43 | S 3.37 | T 3.37 | V 2.42 | W 1.37 | Y 2.77
M9: A 3.66 | C 3.58

Source: the supplement of paper PMC10567573
